Numbering of substitutions follows the chain as printed.
B1: 2D3-9GS-59C2-MycHis: SEQ ID NO: 160 (protein)
chain: EVQLVESGGSLVQPGGSLRLSCAASGFTFDDYAMSWVRQVPGKGLEWVSSINWSGTHTDYADSVKGRFTISRNNANNTLYLQMNSLKSEDTAVYYCAKNWRDAGTTWFEKSGSAGQGTQVTVSSGGGGSGGGSAAARDWDFDVFGGGTPVGGAAAEQKLISEEDLNGAAHHHHHH
modifications: Myc-His tag
B2: 2D3-9GS-59F2-MycHis: SEQ ID NO: 159 (protein)
chain: B1 chain with D138Y
modifications: Myc-His tag
B3: 2D3-9GS-59H12-MycHis: SEQ ID NO: 161 (protein)
chain: B1 chain with D138S
modifications: Myc-His tag
B4: 12A2_sv1-AAA-12A2_sv1 (protein)
chain: DVQLVESGGGLVQPGGSLRLSCAASGRTFSYNPMGWFRQAPGKGRELVAAISRTGGSTYYPESVEGRFTISRDNAKRTVYLQMNSLRAEDTAVYYCAAAGVRAEQGRVRTLPSEYTFWGQGTQVTVSSAAAEVQLVESGGGLVQPGGSLRLSCAASGRTFSYNPMGWFRQAPGKGRELVAAISRTGGSTYYPESVEGRFTISRDNAKRTVYLQMNSLRAEDTAVYYCAAAGVRAEQGRVRTLPSEYTFWGQGTQVTVSS
B5: 12A2_sv1-9GS-59C2-9GS-12A2_sv1 (protein)
chain: DVQLVESGGGLVQPGGSLRLSCAASGRTFSYNPMGWFRQAPGKGRELVAAISRTGGSTYYPESVEGRFTISRDNAKRTVYLQMNSLRAEDTAVYYCAAAGVRAEQGRVRTLPSEYTFWGQGTQVTVSSGGGGSGGGSRDWDFDVFGGGTPVGGGGGGSGGGSEVQLVESGGGLVQPGGSLRLSCAASGRTFSYNPMGWFRQAPGKGRELVAAISRTGGSTYYPESVEGRFTISRDNAKRTVYLQMNSLRAEDTAVYYCAAAGVRAEQGRVRTLPSEYTFWGQGTQVTVSS
B6: 12A2_sv1-AAA-12A2_sv1-9GS-59C2-9GS-59C2 (protein)
chain: DVQLVESGGGLVQPGGSLRLSCAASGRTFSYNPMGWFRQAPGKGRELVAAISRTGGSTYYPESVEGRFTISRDNAKRTVYLQMNSLRAEDTAVYYCAAAGVRAEQGRVRTLPSEYTFWGQGTQVTVSSAAAEVQLVESGGGLVQPGGSLRLSCAASGRTFSYNPMGWFRQAPGKGRELVAAISRTGGSTYYPESVEGRFTISRDNAKRTVYLQMNSLRAEDTAVYYCAAAGVRAEQGRVRTLPSEYTFWGQGTQVTVSSGGGGSGGGSRDWDFDVFGGGTPVGGGGGGSGGGSRDWDFDVFGGGTPVGG
B7: 2D3-9GS-56E4-MycHis: SEQ ID NO: 158 (protein)
chain: B1 chain with D138Y, F141Y
modifications: Myc-His tag

Experiments:
[1] = target: Cynomolgus monkey serum albumin (Macaca fascicularis, UniProt A2V9Z4); assay: Surface plasmon resonance (BIAcore 3000) of MycHis tagged 2D3-Expedite fusions, Example 10; assay type: binding; conditions: for ka / koff (dissociation rate constant): Cynomolgus monkey serum albumin; for ka: chip ~3000 RU; for binding to CSA compared to 2D3-9GS-56E4-MycHis: FIG. 8B
Sequence of Cynomolgus monkey serum albumin (A2V9Z4 25-608): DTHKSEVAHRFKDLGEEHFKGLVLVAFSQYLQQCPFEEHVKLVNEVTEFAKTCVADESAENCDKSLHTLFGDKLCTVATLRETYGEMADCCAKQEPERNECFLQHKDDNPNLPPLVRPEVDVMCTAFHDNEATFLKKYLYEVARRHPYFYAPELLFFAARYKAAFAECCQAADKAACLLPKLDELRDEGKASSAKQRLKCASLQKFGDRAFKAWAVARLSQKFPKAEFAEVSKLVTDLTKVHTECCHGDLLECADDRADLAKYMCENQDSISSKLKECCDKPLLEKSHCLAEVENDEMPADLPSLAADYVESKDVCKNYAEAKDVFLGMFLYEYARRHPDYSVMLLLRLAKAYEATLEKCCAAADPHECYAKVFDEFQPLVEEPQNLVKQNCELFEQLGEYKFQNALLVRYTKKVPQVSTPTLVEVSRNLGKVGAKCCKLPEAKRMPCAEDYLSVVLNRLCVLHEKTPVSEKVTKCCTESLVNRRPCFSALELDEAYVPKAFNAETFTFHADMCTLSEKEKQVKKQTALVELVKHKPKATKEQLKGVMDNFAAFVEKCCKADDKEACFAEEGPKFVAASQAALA
Experimental: (§1) The binding of the resulting 2D3-9GS-56E4-MycHis, 2D3-9GS-59C2-MycHis, 2D3-9GS-59F2-MycHis and 2D3-9GS-59H12-MycHis fusion proteins to human and cynomolgus serum albumin (HSA and CSA respectively) was determined using surface plasmon resonance analysis. For this purpose, binding to HSA and CSA was assessed in BIAcore™ 3000, by injecting concentration series of the fusion proteins ranging from 2 μM to 200 nM on a CM5 chip coated with ˜3000 RU HSA or CSA. Coating of the chip (CM5) was performed by amine coupling using NHS/EDC for activation and ethanolamine for deactivation (Biacore amine coupling kit). HBS-EP was used as flow buffer at a rate of 45 μl min-1. 90 μl of sample was injected for 120 s.

human serum albumin = human serum albumin (Homo sapiens, UniProt P02768); assay: as above; assay type: binding; conditions: for binding to HSA compared to 2D3-9GS-56E4-MycHis: FIG. 8A; for ka / dissociation rate constant (koff): Human serum albumin; for ka: chip ~3000 RU
Experimental: as §1

[2] = cynomolgus monkey, in vivo; for AUCinf / C0: 2 mg/kg
Experimental: The pharmacokinetic profile of the constructs was analyzed in male cynomolgus monkeys of approximately 3 to 4 years old and was compared to the reference (SEQ ID NO:165). The constructs and the control were each injected in three monkeys at a dose of 2 mg/kg via an intravenous bolus injection. Blood samples were taken at predose, 5 min, 20 min, 1 h, 2 h, 4 h, 8 h (test day 1) after administration and at test days 2, 3, 5, 7, 9, 12, 15, 18, 21, 24, 27, 30, 33. In order to obtain at least 1 mL plasma per animal per sampling time, a sufficient volume of whole blood was withdrawn per sampling time. Plasma was collected after whole blood centrifugation for 30 minutes at 2200 g at room temperature (RT). The plasma samples were stored at −80° C. until analysis.
For bioanalytical determination of constructs and control article in monkey plasma, plasma samples were tested for levels of constructs and the control using ELISA based PK assays. The detection of control and constructs in the ELISA assays is based on the binding of these Nanobodies with vWF and the assay set-ups are as such that total vWF-binding Nanobody is detected.
For the reference (SEQ ID NO:165) and the construct of SEQ ID NO:167, 96-well microtiter plates (Maxisorp, Nunc, Wiesbaden, Germany) were coated overnight at 4° C. with neutravidin (Pierce) in 10:10 buffer at 3 μg/ml. Wells were aspirated and blocked for 1 hour at RT with PBS/1% casein. After this blocking step, wells were washed with PBS/0.05% Tween20. A biotinylated bivalent Nanobody against the constructs was added to the neutravidin coated plate at 2 μg/ml in PBS/0.1% casein and incubated for 1 hour at RT. After the incubation step of this capture tool, wells were washed 3 times with PBS/0.05% Tween20.
Preparations of the standards, QC samples and dilutions of the test samples were performed in a non-coated (polypropylene) plate. For the standard curve and QC-samples, solutions at the required concentrations were prepared in PBS/0.1% casein and spiked into 100% monkey plasma. To prepare standards and QC samples, a 1/100 dilution of the pure monkey plasma dilutions was made in IgM-Reducing Agent (Immunochemistry Technologies, Bloomington, USA) supplemented with 2.5% pooled human plasma (referred to as sample diluent). For the test samples, dilution factors for the test samples were estimated, and ranged between 1/100 to 1/9000 for the reference of SEQ ID NO:165 tests and between 1/100 and 12000 for the construct of SEQ ID NO: 167. Samples were diluted 1/100 in sample diluent in a first step, and if needed, further dilution was done in sample diluent supplemented with 1% cynomolgus plasma.
Standards, QC samples and diluted test samples were transferred onto the coated plate and incubated for 1 hour at RT. Afterwards the plates were washed followed by a complexation step with purified vWF (ZLB Behring). vWF diluted to 2.5 μg/ml for the assay for the reference of SEQ ID NO:165 and to 3 μg/ml for the assay for the construct of SEQ ID NO: 167 in PBS/0.1% casein was incubated on the plates for 30 minutes at RT. Plates were washed and Nanobody/vWF complexes bound to the capture tool detected with Rabbit anti-human vWF Ab (Dako, Denmark), diluted 1/2000 in PBS/0.1% casein and incubated for 30 minutes at RT. After washing, a 1/15000 dilution in PBS/0.1% casein of Horse-Radish-Peroxidase labelled goat anti-rabbit Ab (Dako, Denmark) was added to the plate and incubated for 30 minutes at RT. The enzyme coupled to the Ab catalyzes a chemical reaction with the substrate sTMB (3,3′,5,5′-tetramethylbenzidine, SDT reagents, Brussels, Belgium), resulting in a colorimetric change. After stopping this reaction after 10 minutes using HC1 (1N), the intensity of the colour was measured using a spectrophotometer at 450 nm. […]

VWF = assay: Pharmacodynamic profile: ristocetin cofactor activity assay (% RICO) after i.v. administration; assay type: in vivo, Cynomolgus monkey; conditions: for Tonset values: estimated, i.v. application; for AUC below T / Time below T: threshold 20% RICO, male Cynomolgus monkey, mean n = 3; for AUC below T / Time below T / Tonset / Toffset: i.v. bolus 2 mg/kg; for Tonset: time % RICO first drops below threshold; for Toffset: time % RICO first returns above threshold; for mean AUC under the threshold increase relative to vWF0001 / time below the threshold increase relative to vWF0001: i.v. bolus
Experimental: For the constructs used in Example 14, pharmacodynamic characteristics upon compound administration were measured by means of a ristocetin cofactor activity assay (Biopool). The ristocetin cofactor activity is a functional assay for VWF, measuring the capacity of VWF to interact with the platelet receptor glycoprotein Ib using ristocetin as a modulator.
For pharmacodynamic data analysis, descriptive statistics (mean and SD) were calculated per dose group and per sampling time point using Microsoft Excel 2007. Response parameters and associated statistics for the overall time course were calculated by noncompartmental analysis of the response-time data using WinNonlin Pro 5.1 (Pharsight Corporation, USA; 2006). The non-compartmental analysis was based on a model for pharmacodynamic data (Model 220). The threshold value was set at 20% based on extensive historical PK/PD data on the vWF-0001 compound. Preclinical studies have shown that a complete inhibition of the pharmacodynamic marker are correlated with full antithrombotic efficacy. The following main pharmacodynamic parameters were determined: time below the threshold (Time below T), area under the threshold (AUC below T), time at which the % RICO first drops below the threshold (Tonset), and time at which the % RICO first returns back above the threshold (Toffset).

[3] = test system: platelet adhesion to fibrillar collagen; assay: Perfusion experiments: platelet adhesion to collagen at arterial shear rate; assay type: cell-based, human
Experimental: The perfusion experiments were performed with a single-pass perfusion chamber under non-pulsatile flow conditions using a modified small perfusion chamber with a slit height of 0.1 mm and a slit width of 2 mm. […] Citrated human blood was preincubated at 37° C. for 5 min with or without addition of test compound, and then perfused through the chamber for 5 min at a wall shear rate of 1600 s^−1 using an infusion/withdrawal pump (pump 22, model 2400-004, Harvard Apparatus, Holliston, Mass.). After the perfusion run, the coverslips were rinsed in Hepes buffered saline (10 mM Hepes, 150 mM NaCl, pH 7.4) and platelets were fixed with 5% glutaraldehyde and stained with May-Grünwald and Giemsa. Platelet deposition of the coverslip was evaluated as platelet surface coverage of 10 randomly chosen pictures using light microscopy (Olympus BX61 microscope using Analysis Five digital imaging solutions analysis software).

Row | Molecule | ka [1] | koff (dissociation rate constant) [1] | binding to CSA compared to 2D3-9GS-56E4-MycHis [1] | binding to HSA compared to 2D3-9GS-56E4-MycHis (human serum albumin) | ka (human serum albumin) | dissociation rate constant (koff) (human serum albumin) | AUCinf ([2]; iv) | C0 ([2]; iv) | Tonset values (VWF) | AUC below T (VWF) | Time below T (VWF) | Tonset (VWF) | Toffset (VWF) | also measured
1 | B1 | 2.75E+03 1/ms | 0.00213 s⁻¹ | improved binding | improved binding | 3.73E+03 1/ms | 0.00179 s⁻¹ | – | – | – | – | – | – | – | –
2 | B2 | 4.85E+03 1/ms | 0.00504 s⁻¹ | improved binding | improved binding | 6.14E+03 1/ms | 0.00351 s⁻¹ | – | – | – | – | – | – | – | –
3 | B3 | 3.45E+03 1/ms | 0.00441 s⁻¹ | improved binding | improved binding | 4.59E+03 1/ms | 0.00304 s⁻¹ | – | – | – | – | – | – | – | –
4 | B4 | – | – | – | – | – | – | 62.6 µg·h/mL | 45300 ng/mL | ~5 min | 6.60 % RICO * h | 1.21 h | 0.077 h | 1.28 h | plasma level after the initial drop [2]: ~2000 ng/mL; plasma level directly after i.v. injection ([2]; iv): about 45 ug/ml
5 | B5 | – | – | – | – | – | – | 1320 µg·h/mL | 48900 ng/mL | ~5 min | 379 % RICO * h | 39.9 h | 0.079 h | 40.0 h | Vdss lower relative to vWF0001 [2]: 12 fold; dominant half-life (t½ dominant) increase relative to vWF0001 [2]: 70 fold; mean CL decrease compared to the control [2]: 22 fold; mean AUC under the threshold increase relative to vWF0001 (VWF): 57 fold; time below the threshold increase relative to vWF0001 (VWF): 33 fold
6 | B6 | – | – | – | – | – | – | 4140 µg·h/mL | 69400 ng/mL | ~5 min | 1709 % RICO * h | 202 h | 0.079 h | 202 h | Vdss lower relative to vWF0001 [2]: 19 fold; dominant half-life (t½ dominant) increase relative to vWF0001 [2]: 158 fold; mean CL decrease compared to the control [2]: 67 fold; mean AUC under the threshold increase relative to vWF0001 (VWF): 259 fold; time below the threshold increase relative to vWF0001 (VWF): 167 fold; Effective concentration compared to VWF0001 ([3]; FIG. 12): similar; inhibition of platelet adhesion to fibrillar collagen at arterial shear rate ([3]; citrated human blood, wall shear rate 1600 s^−1, FIG. 12): dose-dependently and completely inhibit
7 | B7 | 4.01E+03 1/ms | 0.00845 s⁻¹ | – | – | 5.02E+03 1/ms | 0.00497 s⁻¹ | – | – | – | – | – | – | – | –

— patent US8217140B2, “Peptides capable of binding to serum proteins and compounds, constructs and polypeptides comprising the same” (Ablynx N.V., priority 2008, dated 2012)
